Experimental data from PMC5693750 (Journal of molecular biology, 2017).
Blank lines part the entries; values can stand above or below the molecule they belong to.

B1: Swi6 (full-length, wild type) (natural protein, S. pombe, UniProt P40381 1-328, looked up)
chain: MKKGGVRSYRRSSTSKRSVIDDDSEPELPSMTKEAIASHKADSGSSDNEVESDHESKSSSKKLKENAKEEEGGEEEEEDEYVVEKVLKHRMARKGGGYEYLLKWEGYDDPSDNTWSSEADCSGCKQLIEAYWNEHGGRPEPSKRKRTARPKKPEAKEPSPKSRKTDEDKHDKDSNEKIEDVNEKTIKFADKSQEEFNENGPPSGQPNGHIESDNESKSPSQKESNESEDIQIAETPSNVTPKKKPSPEVPKLPDNRELTVKQVENYDSWEDLVSSIDTIERKDDGTLEIYLTWKNGAISHHPSTITNKKCPQKMLQFYESHLTFRENE
B2: Chp2 (full-length, wild type) (natural protein, S. pombe, UniProt O42934 1-380, looked up)
chain: MVKSADLDLMNSIISESDENFSPPPFTVEEAENSINNKSSTASLESPQNGSWHPSLYGLSVPEKTHIQNSLDLYSHGNSGSQKTHNVSFSCEIRKVKSSKLSPISNMEDSEDKKEEDESSSYKNEFKSSSSASVSSNFEKTSGSDDHNSQSPVPLNEGFEYIASSGSEDKNSDEEFAVEMILDSRMKKDGSGFQYYLKWEGYDDPSDNTWNDEEDCAGCLELIDAYWESRGGKPDLSSLIRLTRSRARSSNEASYVEKDESSNSDDSISYKRRRSRNAANRITDYVDSDLSESSMKEKQSKIEKYMKSDKSSKNFKPPFQKKSWEDLVDCVKTVQQLDNGKLIAKIKWKNGYVSTHDNIIIHQKCPLKIIEYYEAHIKFT

Assays:
[1] = biological target: H3Kc9me3 mononucleosome (Xenopus laevis); test: AUC
[2] = biological target: H3Kc9me3 mononucleosome (Xenopus laevis); test: fluorescence polarisation
[3] = biological target: T1, Swi6 chromoshadow domain (CSD) (S. pombe, UniProt P40381 261-328); test: NMR titration
T1 sequence: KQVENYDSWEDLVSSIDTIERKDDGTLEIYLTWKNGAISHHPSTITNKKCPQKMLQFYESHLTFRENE

AUC [4] = biological target: the molecule itself; test: AUC
H3K9me3 tail peptide = test: fluorescence polarisation
[5] = biological target: Unmethylated H3 tail peptide; test: fluorescence polarisation
[6] = biological target: B1; test: fluorescence polarisation
[7] = biological target: B2; test: fluorescence polarisation
AUC [8] = biological target: the molecule itself; test: AUC; remark: listed apart in the source

Molecule: Chp2 I370E (from UniProt O42934 1-380) (natural protein)
fold weaker Kd than wild-type Chp2 [2]: 3 fold

Molecule: Swi6 L315D (from UniProt P40381 1-328) (natural protein)
fold weaker Kd than wild-type Swi6 [2]: 8.5 fold

Molecule: RAVTQYLLHLLQKARPTSQ [Clr3 peptide]
Kd [3]: 68 ± 15 µM | Kd fitted for residue E280 [3]: 62.5 ± 15.4 | Kd fitted for residue H321 [3]: 51.9 ± 7.84

Molecule: B1
binding result (AUC [4]): binds | fold weaker binding than Chp2 to the same peptide (H3K9me3 tail peptide): 5.5 fold | fold weaker binding than Swi6 to H3Kc9me3 nucleosomes (H3K9me3 tail peptide): 77 fold | fold weaker binding than to the H3K9me3 tail peptide [5]: > 10 fold

Molecule: B2
Kd (AUC [8]): 183 µM | Kd (H3K9me3 tail peptide): 1.85 µM | fold weaker binding than to the H3K9me3 tail peptide [5]: > 10 fold

Continued, values first:

stoichiometry N [1]: 4 | Kd [2]: 0.43 µM
Molecule: Chp2 (full-length, wild type) (from UniProt O42934 1-380) (natural protein)

Kd [2]: 0.13 µM
Molecule: Swi6 (full-length, wild type) (from UniProt P40381 1-328) (natural protein)

Kd [6]: 6.6 ± 2.1 µM | Kd [7]: 58.5 µM
Molecule: EKAKTSNVCVCIPCKSAEQ [Sgo1 peptide]
